In the assay the target is CD47 (endogenously expressed in MDA-MB-231 cells) (human (endogenous in MDA-MB-231)) (UniProt Q08722).

2 substances from publication PMC12786276 can be followed below.

Chain of UniProt Q08722 (Q08722 19-323): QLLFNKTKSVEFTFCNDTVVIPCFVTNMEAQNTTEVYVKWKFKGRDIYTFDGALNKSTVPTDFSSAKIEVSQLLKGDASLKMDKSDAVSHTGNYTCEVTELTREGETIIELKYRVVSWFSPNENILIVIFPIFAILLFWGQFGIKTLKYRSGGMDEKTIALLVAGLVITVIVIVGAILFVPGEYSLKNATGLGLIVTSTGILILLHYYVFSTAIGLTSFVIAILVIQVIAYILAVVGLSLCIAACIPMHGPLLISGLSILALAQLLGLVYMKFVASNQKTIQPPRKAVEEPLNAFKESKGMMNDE

“integrin αv subunit (endogenously expressed in MDA-MB-231 cells) (natural protein)” returned a phagocytosis of MDA-MB-231 cells by macrophages (flow cytometry) after PSFL-NK13 (4 µM, 48 h) of 3 fold.
The result for “integrin β3 subunit (endogenously expressed in MDA-MB-231 cells) (from UniProt P05106 27-788) (natural protein)” reads 3 fold.
